From patent US20240360228A1 (BIOLEGEND, published 2024)

Experiments:
human CCR8 [1] = target: T1, human CCR8 (human, UniProt P51685 1-355); assay: flow blocking, PBMC CCR8+CD4+; competitor PE-AB1
T1 construct: Native CCR8 on human PBMC (CCR8+ CD3+ or CCR8+ CD4+ lymphocytes); also called chemokine (C-C motif) receptor 8
Method: (§1) For blocking studies, 100 μL of the cell suspension were incubated with 10 μg purified isotype control, AB1, AB2, AB3, AB4, AB5, AB8, AB9, AB10, AB11, AB12, AB13, AB14, AB15, and Commercial ABI antibodies, or isotype control, as blocking agents.
(§2) After incubation with the blocking agent, the cells were incubated with 0.25 μg of the indicated PE-conjugated antibody plus anti-human CD4 APC or anti-human CD3 for another 15 minutes in the dark and then washed 2 times with Cell Staining Buffer, and acquired in a FACSCanto II flow cytometer (BD Biosciences); the data was analyzed using FCS Express (De Novo Software); MFI correspond to the CCR8+ CD4+ lymphocytes or CCR8+ CD3+ lymphocytes.
(§3) Percentage original MFI was calculated by dividing the MFI of samples blocked with AB1, AB2, AB3, AB4, AB5, AB6, AB7, AB8, AB9, AB10, AB11, AB12, AB13, AB14, AB15, and Commercial ABI antibodies, by the MFI of samples blocked with the corresponding isotype control. This value was subtracted from 100 to get a blocking percentage. The formula is shown below: […]

human CCR8 [2] = target: T1, human CCR8; assay: flow blocking, PBMC CCR8+CD4+; competitor PE-AB2
Method: as §1, §2, §3

human CCR8 [3] = target: T1, human CCR8; assay: flow blocking, PBMC CCR8+CD4+; competitor PE-AB3
Method: as §1, §2, §3

human CCR8 [4] = target: T1, human CCR8; assay: flow blocking, PBMC CCR8+CD4+; competitor PE-AB4
Method: as §1, §2, §3

human CCR8 [5] = target: T1, human CCR8; assay: flow blocking, PBMC CCR8+CD4+; competitor PE-AB5
Method: as §1, §2, §3

human CCR8 [6] = target: T1, human CCR8; assay: flow blocking, PBMC CCR8+CD4+; competitor PE-AB6
Method: as §1, §2

human CCR8 [7] = target: T1, human CCR8; assay: flow blocking, PBMC CCR8+CD4+; competitor PE-433H
Method: as §1, §2

human CCR8 [8] = target: T1, human CCR8; assay: flow blocking, PBMC CCR8+CD4+; competitor PE-AB10
Method: as §1, §2, §3

human CCR8 [9] = target: T1, human CCR8; assay: flow blocking, PBMC CCR8+CD4+; competitor PE-AB11
Method: as §1, §2, §3

human CCR8 [10] = target: T1, human CCR8; assay: flow blocking, PBMC CCR8+CD4+; competitor PE-AB12
Method: as §1, §2, §3

human CCR8 [11] = target: T1, human CCR8; assay: flow blocking, PBMC CCR8+CD4+; competitor PE-AB13
Method: as §1, §2

human CCR8 [12] = target: T1, human CCR8; assay: flow blocking, PBMC CCR8+CD4+; competitor PE-AB14
Method: as §1, §2

human CCR8 [13] = target: T1, human CCR8; assay: flow blocking, PBMC CCR8+CD4+; competitor PE-AB15
Method: as §1, §2, §3

T1 sequence (P51685 whole entry): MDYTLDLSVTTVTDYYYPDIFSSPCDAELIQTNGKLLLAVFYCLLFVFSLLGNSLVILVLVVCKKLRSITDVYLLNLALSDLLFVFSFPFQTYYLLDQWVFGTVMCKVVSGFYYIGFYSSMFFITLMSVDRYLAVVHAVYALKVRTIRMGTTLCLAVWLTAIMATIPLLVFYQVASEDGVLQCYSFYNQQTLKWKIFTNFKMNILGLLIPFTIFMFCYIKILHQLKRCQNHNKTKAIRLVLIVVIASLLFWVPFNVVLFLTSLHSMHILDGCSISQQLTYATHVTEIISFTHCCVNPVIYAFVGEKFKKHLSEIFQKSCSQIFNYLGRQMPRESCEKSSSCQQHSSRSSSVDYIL

B1: AB1 (antibody, V domains shown)
VH: QVQLKESGPGLVKPSETLSLTCTVSGFSLTSYHISWVRQPPGKGLEWMGVIWGDGSKTYNSALKSRLSISRDTSKSQVFLKMRSLKTEDTATYYCARGGDSGFAYWGQGTLVTVSS
VL: DIQMTQSPASLSASLEEIVTITCQASQDIGNWLSWYQQKPGKSPQLLIYGTTNLADGVPSRFSGSRSGTQYSLKISRLQVEDIGIYYCLQAYSVPLTFGSGTKLEIK
notes: Hybridoma monoclonal (mouse or rat); Same VH/VL entries as AB2; also called antibody 1; clone 1
B1 was tested, and the “% Blocking” value (human CCR8 [1]) was 98.7%, the “% Positive cells” value (human CCR8 [1]) was 0.02% and the “% Blocking” value (human CCR8 [2]) was 98.2%. The “% Positive cells” value (human CCR8 [2]) was 0.03%, the “% Blocking” value (human CCR8 [3]) was 97.1% and the “% Positive cells” value (human CCR8 [3]) was 0.05%. For the same binder, the “% Blocking” value (human CCR8 [4]) was 96.1%, the “% Positive cells” value (human CCR8 [4]) was 0.07% and the “% Blocking” value (human CCR8 [5]) was 89.6%. For the same binder, the “% Positive cells” value (human CCR8 [5]) was 0.21%, the “% Blocking” value (human CCR8 [6]) was 86.6% and the “% Positive cells” value (human CCR8 [6]) was 0.27%. The “% Blocking” value (human CCR8 [7]) was 14.8%, the “% Positive cells” value (human CCR8 [7]) was 1.5% and the “% Blocking” value (human CCR8 [8]) was 3.38%. The “% Positive cells” value (human CCR8 [8]) was 1.43%, the “% Blocking” value (human CCR8 [9]) was -5.61% and the “% Positive cells” value (human CCR8 [9]) was 2.07%. For the same binder, the “% Blocking” value (human CCR8 [10]) was -2.78%, the “% Positive cells” value (human CCR8 [10]) was 1.85% and the “% Blocking” value (human CCR8 [11]) was 10.1%. For the same binder, the “% Positive cells” value (human CCR8 [11]) was 1.78%, the “% Blocking” value (human CCR8 [12]) was 1.54% and the “% Positive cells” value (human CCR8 [12]) was 1.28%. The “% Blocking” value (human CCR8 [13]) was -30.2% and the “% Positive cells” value (human CCR8 [13]) was 1.68%.

B2: AB3 (antibody, V domains shown)
VH: QVQLKESGPGLVKPSETLSLTCTVSGFSLTSYHISWVRQPPGKGLEWMGVIWGDGKTTYNSALKSRLSISRDTSKSQVFLKMNSLKTEDTATYYCARGGDSGFAYWGQGTLVTVSS
VL: DIQMTQSPASLSASLEEIVTITCQASQDIGNWLSWYQQKPGKSPQLLIYGTTNLADGVPSRFSGSRSGTQYSLKISRLQVEDIGIYYCLQAYSVPLTFGSGTKLEIK
notes: Hybridoma monoclonal; also called antibody 3; clone 3
With B2 the “% Blocking” value (human CCR8 [1]) was 97.4%, the “% Positive cells” value (human CCR8 [1]) was 0.04% and the “% Blocking” value (human CCR8 [2]) was 98.8%. For the same binder, the “% Positive cells” value (human CCR8 [2]) was 0.02%, the “% Blocking” value (human CCR8 [3]) was 100% and the “% Positive cells” value (human CCR8 [3]) was 0%. For the same binder, the “% Blocking” value (human CCR8 [4]) was 93.3%, the “% Positive cells” value (human CCR8 [4]) was 0.12% and the “% Blocking” value (human CCR8 [5]) was 85.2%. For the same binder, the “% Positive cells” value (human CCR8 [5]) was 0.3%, the “% Blocking” value (human CCR8 [6]) was 84.7% and the “% Positive cells” value (human CCR8 [6]) was 0.31%. For the same binder, the “% Blocking” value (human CCR8 [7]) was 7.39%, the “% Positive cells” value (human CCR8 [7]) was 1.63% and the “% Blocking” value (human CCR8 [8]) was -9.46%. The “% Positive cells” value (human CCR8 [8]) was 1.62%, the “% Blocking” value (human CCR8 [9]) was 4.59% and the “% Positive cells” value (human CCR8 [9]) was 1.87%. For the same binder, the “% Blocking” value (human CCR8 [10]) was 1.67%, the “% Positive cells” value (human CCR8 [10]) was 1.77% and the “% Blocking” value (human CCR8 [11]) was 21.2%. The “% Positive cells” value (human CCR8 [11]) was 1.56%, the “% Blocking” value (human CCR8 [12]) was -12.3% and the “% Positive cells” value (human CCR8 [12]) was 1.46%. For the same binder, the “% Blocking” value (human CCR8 [13]) was -7.75% and the “% Positive cells” value (human CCR8 [13]) was 1.39%.

B3: AB4 (antibody, V domains shown)
VH: QVQLKESGPGLVKPSETLSLTCTVSGFSLTGYHVSWVRQPPGKGLEWMGVIWGDGRTTYNSALKSRLSISRDTSKSQVFLKMSSLKTEDTATYYCARGGDSGFAYWGQGTLVTVSS
VL: DIQMTQSPASLSASLEEIVTITCQASQDIGNWLSWYQQKPGKSPQLLIYGATSLADGVPSRFSGSRSGTQFSLKISRLQVEDIGIYYCLQAYIVPLTFGSGTKLESK
notes: Hybridoma monoclonal; also called antibody 4; clone 4
With B3 the “% Blocking” value (human CCR8 [1]) was 100%, the “% Positive cells” value (human CCR8 [1]) was 0% and the “% Blocking” value (human CCR8 [2]) was 98.8%. For the same binder, the “% Positive cells” value (human CCR8 [2]) was 0.02%, the “% Blocking” value (human CCR8 [3]) was 98.2% and the “% Positive cells” value (human CCR8 [3]) was 0.03%. For the same binder, the “% Blocking” value (human CCR8 [4]) was 94.9%, the “% Positive cells” value (human CCR8 [4]) was 0.09% and the “% Blocking” value (human CCR8 [5]) was 87.1%. For the same binder, the “% Positive cells” value (human CCR8 [5]) was 0.26%, the “% Blocking” value (human CCR8 [6]) was 87.1% and the “% Positive cells” value (human CCR8 [6]) was 0.26%. The “% Blocking” value (human CCR8 [7]) was 1.14%, the “% Positive cells” value (human CCR8 [7]) was 1.74% and the “% Blocking” value (human CCR8 [8]) was 0.68%. For the same binder, the “% Positive cells” value (human CCR8 [8]) was 1.47%, the “% Blocking” value (human CCR8 [9]) was 4.59% and the “% Positive cells” value (human CCR8 [9]) was 1.87%. The “% Blocking” value (human CCR8 [10]) was 1.11%, the “% Positive cells” value (human CCR8 [10]) was 1.78% and the “% Blocking” value (human CCR8 [11]) was 21.7%. The “% Positive cells” value (human CCR8 [11]) was 1.55%, the “% Blocking” value (human CCR8 [12]) was -15.4% and the “% Positive cells” value (human CCR8 [12]) was 1.5%. For the same binder, the “% Blocking” value (human CCR8 [13]) was -33.3% and the “% Positive cells” value (human CCR8 [13]) was 1.72%.
